Source: patent publication US20200123267A1 (Genentech, published 2020)

Tests used:
[1] = biological target: Human TfR extracellular domain containing an N-terminal His tag (human) (UniProt P02786); assay: SPR, bispecific antibody
[2] = biological target: Human TfR extracellular domain containing an N-terminal His tag (human) (UniProt P02786); assay: SPR, monovalent, TfR captured via anti-His, bispecific injected
[3] = biological target: T1, TfR (species and construct not stated, Table 13) (Homo sapiens (Human), UniProt P02786 89-760); assay: kinetic measurement, method not stated
T1 construct: not shown: N-terminal His tag of the soluble TfR ecd construct
T1 sequence (P02786 89-760 G142S limits assumed): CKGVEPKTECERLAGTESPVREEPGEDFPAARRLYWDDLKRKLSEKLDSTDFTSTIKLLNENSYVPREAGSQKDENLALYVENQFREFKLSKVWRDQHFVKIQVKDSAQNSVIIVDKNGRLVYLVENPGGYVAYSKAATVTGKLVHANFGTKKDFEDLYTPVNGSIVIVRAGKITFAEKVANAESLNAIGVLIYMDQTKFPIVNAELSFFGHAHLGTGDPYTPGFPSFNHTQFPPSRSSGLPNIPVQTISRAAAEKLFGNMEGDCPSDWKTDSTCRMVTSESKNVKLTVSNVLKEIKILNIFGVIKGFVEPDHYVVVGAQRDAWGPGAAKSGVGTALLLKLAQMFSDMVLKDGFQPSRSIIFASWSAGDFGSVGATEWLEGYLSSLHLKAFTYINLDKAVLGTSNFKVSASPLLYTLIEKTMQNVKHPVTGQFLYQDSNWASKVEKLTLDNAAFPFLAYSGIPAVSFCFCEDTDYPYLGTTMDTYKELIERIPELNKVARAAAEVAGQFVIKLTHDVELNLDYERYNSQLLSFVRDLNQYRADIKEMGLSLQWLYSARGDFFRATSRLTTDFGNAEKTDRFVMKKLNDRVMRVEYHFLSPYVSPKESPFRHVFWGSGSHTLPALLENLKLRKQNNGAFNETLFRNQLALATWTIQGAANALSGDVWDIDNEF

Sequence of Human TfR extracellular domain containing an N-terminal His tag (human) (P02786 89-760 G142S): as the sequence (P02786 89-760 G142S limits assumed) above

Row | Binder | Kd [1] | Kd [2] | koff [2] | kon [2] | koff [3] | kon [3]
1 | anti-TfR^1/BACE1 bispecific antibody (15G11.v5 arm, human IgG1 D265A N297G, knob in hole) (bispecific antibody, part only; not given: Anti-BACE1 arm and constant regions, V domains shown, not shown: another chain or arm of the molecule; a dimerising Fc or GST; small tags and cut ends) VH: EVQLVQSGAEVKKPGASVKVSCKASGYTFTSYWMHWVRQAPGQRLEWIGEINPTNGRTNYIEKFKSRATLTVDKSASTAYMELSSLRSEDTAVYYCARGTRAYHYWGQGTMVTVSS VL: DIQMTQSPSSLSASVGDRVTITCRASDNLYSNLAWYQQKPGKSPKLLVYDATNLADGVPSRFSGSGSGTDYTLTISSLQPEDFATYYCQHFWGTPLTFGQGTKVEIK | 10 nM | – | – | – | – | –
2 | Hu15G11.HC52A Fab (Fab, V domains shown, Fab; also called antiTfR.52A.Fab; 15G11.52A Fab) VH: EVQLVQSGAEVKKPGASVKVSCKASGYTFTSYWMHWVRQAPGQRLEWIGEIAPTNGRTNYIEKFKSRATLTVDKSASTAYMELSSLRSEDTAVYYCARGTRAYHYWGQGTMVTVSS VL: DIQMTQSPSSLSASVGDRVTITCRASDNLYSNLAWYQQKPGKSPKLLVYDATNLADGVPSRFSGSGSGTDYTLTISSLQPEDFATYYCQHFWGTPLTFGQGTKVEIK | – | – | – | – | 0.0204 s⁻¹ | 371000 M⁻¹ s⁻¹

More lines, now with the values ahead:

Row | Kd [1] | Kd [2] | koff [2] | kon [2] | koff [3] | kon [3] | Binder
3 | 270 nM | 295 nM | 0.0377 s⁻¹ | 128000 M⁻¹ s⁻¹ | – | – | anti-TfR^2/BACE1 bispecific antibody (15G11.W92A arm, human IgG1 D265A N297G, knob in hole) (bispecific antibody, part only; not given: Anti-BACE1 arm and constant regions, V domains shown, not shown: another chain or arm of the molecule; a dimerising Fc or GST; small tags and cut ends) VH: EVQLVQSGAEVKKPGASVKVSCKASGYTFTSYWMHWVRQAPGQRLEWIGEINPTNGRTNYIEKFKSRATLTVDKSASTAYMELSSLRSEDTAVYYCARGTRAYHYWGQGTMVTVSS VL: DIQMTQSPSSLSASVGDRVTITCRASDNLYSNLAWYQQKPGKSPKLLVYDATNLADGVPSRFSGSGSGTDYTLTISSLQPEDFATYYCQHFAGTPLTFGQGTKVEIK
4 | – | – | – | – | 0.0231 s⁻¹ | 320000 M⁻¹ s⁻¹ | antiTfR.52A.M108L.Fab (Fab, V domains shown, Fab; also called anti-TfR Fab comprising the M108L mutation) VH: EVQLVQSGAEVKKPGASVKVSCKASGYTFTSYWMHWVRQAPGQRLEWIGEIAPTNGRTNYIEKFKSRATLTVDKSASTAYMELSSLRSEDTAVYYCARGTRAYHYWGQGTLVTVSS VL: DIQMTQSPSSLSASVGDRVTITCRASDNLYSNLAWYQQKPGKSPKLLVYDATNLADGVPSRFSGSGSGTDYTLTISSLQPEDFATYYCQHFWGTPLTFGQGTKVEIK
